From the supplement of paper PMC11780869

Test system: Bacillus subtilis
Assay: cleaved RNA product abundance (RNA/gDNA barcode ratio) relative to median wild-type variant (ratio to wild type); higher = more accumulation of the downstream cleavage product
Method in brief: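 Cleaved product abundance for each construct is its RNA-to-gDNA barcode ratio, scaled to the median construct carrying the unmutated site. Cleaved RNA was isolated on a gel, reverse transcribed and barcode-sequenced, with genomic DNA barcodes sequenced alongside and UMIs collapsed. The reporters were truncated aprE or tetM mRNAs with barcoded, mutagenized RNase Y cleavage-site windows integrated into the B. subtilis chromosome, and cultures grew in LB at 37°C from OD600 0.0003 to 0.3.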

[1] = experiment (reporter, strain, medium): exp 2b: truncated aprE reporter, strain BJT200, cleavage site: cggR-gapA (positions -7 to +36 mutated)
[2] = experiment (reporter, strain, medium): exp 4a: truncated aprE reporter, strain BJT201 with 2% xylose (RNase J1 expressed), cleavage site: cggR-gapA (positions -7 to +36 mutated)
[3] = experiment (reporter, strain, medium): exp 8a: truncated aprE reporter, strain BJT201 with 2% xylose (RNase J1 expressed), cleavage site: glnRA (positions -5 to +31 mutated)
[4] = experiment (reporter, strain, medium): exp 6: tetM reporter, strain 168, cleavage site: cggR-gapA (positions -7 to +36 mutated)

| Sequence | cleaved RNA product abundance [1] | cleaved RNA product abundance [2] | cleaved RNA product abundance [3] | also measured |
| --- | --- | --- | --- | --- |
| ACAGACGAAGGAGCCGCAAAGAAGTTATTAAGGGAAGAATAATCCATCAATATAAATATCTCTCACTTATTTAAA | 0.114 | 0.105 | – | – |
| CGACATGTCCCGCTTCTTTCATTAATCAGTTAGCAACTGTTATGCTATATACATTTACCTTTTAAGAGGAGGAAT | – | – | 0.578 | – |
| ACAGACGAAGGAGCCGCAGAGAAGTTATTAAGGGATGAATAATCCCTCAGTATAAATATCTCTCACTTATTTAAA | – | 0.337 | – | – |
| ACAGACGAAGGAGCCGCAAAGAAGTTATTAAGGGATGAAAACTCCCTCAATATAAATATCTCTCACTTATTTAAA | 0.816 | – | – | – |
| ACAGACGAAGGAGCCGCGAAGAAGTTATTAAGGAATGAATAATCCCTCAATATAAATATCTCTCACTTATTTAAA | – | – | – | cleaved RNA product abundance [4]: 0.104 |
| ACAGACGAAGGAGCCGCAAAAAAGTTATTTAGGGATGAATAATCCCTCAATATAAATATCTCTCACTTATTTAAA | – | 0.552 | – | – |
| CGACATGTCCCGCTTCTTTCATTAATCCGTTAGCAACTGTATTGCTATATACATTTACGTTTTAAGAGGAGGAAT | – | – | 1.16 | – |
| ACAGACGAAGGAGCCGCAAAGAAGTTAATAAGGGATGAATAATCCCGCAATATAAATATCTCTCACTTATTTAAA | 0.0984 | – | – | – |
| CGACATGTCCCGCTTCTTTCATTACTCCGTTAGCAACTGTTTTGCTATACACATTTACCTTTTAAGAGGAGGAAT | – | – | 0.423 | – |
| ACAGACGAAGGAGCCGCAAAGAAGTTATTAAGCGATGAATAATCCCTCATAATAAATATCTCTCACTTATTTAAA | 0.165 | – | – | – |
| ACAGACGAAGGAGCCGCAAAGAACTTATTAATGGATGAATAATCCCTCAATATAAATATCTCTCACTTATTTAAA | 0.102 | 0.142 | – | – |
| ACAGACGAAGGAGCCGCATAGAAGTTATTAAGGGATGAATAATCCCTGAATATAAATATCTCTCACTTATTTAAA | – | 0.679 | – | – |
| CGACATGTCCCGCTTCTTTCATTAATCCGTTAACAACTGTTTTGCTATATATATTTACCTTTTAAGAGGAGGAAT | – | – | 0.2 | – |
| CGACATGTCCCGCTTCTTTCATTAATCCGGTAGCAACTGTTTTGCTAGATACATTTACCTTTTAAGAGGAGGAAT | – | – | 0.545 | – |
| CGACATGTCCCGCTTCTTTCATTAATCCGTTAGCAACTGTTTTGCTATAGACATTCACCTTTTAAGAGGAGGAAT | – | – | 0.435 | – |
| ACAGACGAAGGAGCCGCAAAGAAGTTATTACGAGATGAATAATCCCTCAATATAAATATCTCTCACTTATTTAAA | 0.104 | 0.113 | – | – |
| CGACATGTCCCGCTTCTTTCATTAATCCGTTAGCAACTGTTTGGCTATAAACATTTACCTTTTAAGAGGAGGAAT | – | – | 0.327 | – |
| ACAGACGAAGGAGCCGCAAAAAAGTTATTAAGGGCTGAATAATCCCTCAATATAAATATCTCTCACTTATTTAAA | 0.478 | 0.694 | – | – |
| CGACATGTCCCGCTTCTTTCATTAATCCGTTAGCAACTGTTTTGCTATATAAATTTATCTTTTAAGAGGAGGAAT | – | – | 2.04 | – |
| CGACATGTCCCGCTTCTTTCATTAATCCGTTAGCAACTGTTTTGCTAAATACCTTTACCTTTTAAGAGGAGGAAT | – | – | 0.165 | – |

| Sequence | cleaved RNA product abundance [1] | cleaved RNA product abundance [2] | cleaved RNA product abundance [3] | also measured |
| --- | --- | --- | --- | --- |
| ACAGACGAAGGAGCCGCAAAGAAGTTATTAAGGGATGAATAATCCTTCAACATAAATATCTCTCACTTATTTAAA | 0.159 | – | – | – |
| ACAGACGAAGGAGCCGCAAAGAAGTTATTAAGGGATGAATAATTCCTCTATATAAATATCTCTCACTTATTTAAA | – | 0.248 | – | – |
| CGACATGTCCCGCTTCTTTCATTAATCCGTTAGCAACTTTTTAGCTATATACATTTACCTTTTAAGAGGAGGAAT | – | – | 0.565 | – |
| ACAGACGAAGGAGCCGCAAAGAACTTATTAAGAGATGAATAATCCCTCAATATAAATATCTCTCACTTATTTAAA | 0.092 | 0.147 | – | – |
| ACAGACGAAGGAGCCGCAAAGAAGTTATTAAGTGAGGAATAATCCCTCAATATAAATATCTCTCACTTATTTAAA | – | 0.16 | – | – |
| CGACATGTCCCGCTTCTTTCATTAATCAGTTAGCAACTGTATTGCTATATACATTTACCTTTTAAGAGGAGGAAT | – | – | 0.59 | – |
| ACAGACGAAGGAGCCGCAAAGAAGTTATTAAGGGATGAATAATCCCTCAATATATATATCTCTCACTTATTTAAA | 0.874 | 0.885 | – | cleaved RNA product abundance [4]: 0.832 |
| ACAGACGAAGGAGCCGCAAAGAAGTTATTAAGGGATGAATAAACCCTGAATATAAATATCTCTCACTTATTTAAA | 0.303 | 0.388 | – | – |
| CGACATGTCCCGCTTCTTTCATTAATACGTTAGCAACTGTTTTGCTACATACATTTACCTTTTAAGAGGAGGAAT | – | – | 0.381 | – |
| ACAGACGAAGGAGCCGCAAAGTATTTATTAAGGGATGAATAATCCCTCAATATAAATATCTCTCACTTATTTAAA | 0.85 | 0.594 | – | – |
| ACAGACGAAGGAGCCGCAAAGAACTTTTTAAGGGATGAATAATCCCTCAATATAAATATCTCTCACTTATTTAAA | 0.204 | – | – | – |
| CGACATGTCCCGCTTCTTTCATTAATCCTTTAGCAACTGTTTTGCAATATACATTTACCTTTTAAGAGGAGGAAT | – | – | 0.453 | – |
| ACAGACGAAGGAGCCGCAAAGATGTTATTAAGGGATGAATAATCTCTCAATATAAATATCTCTCACTTATTTAAA | – | 0.874 | – | – |
| ACAGACGAAGGAGCCGCTAAGAAGTTATTAAGGGATAAATAATCCCTCAATATAAATATCTCTCACTTATTTAAA | – | 1.15 | – | – |
| ACAGACGAAGGAGCCGCAAAAAAGTTATTAAGGGATCAATAATCCCTCAATATAAATATCTCTCACTTATTTAAA | 0.923 | 0.712 | – | – |
| ACAGACGAAGGAGCCGCAAAGAAGTTATCAGGGGATGAATAATCCCTCAATATAAATATCTCTCACTTATTTAAA | 0.323 | – | – | – |
| ACAGACGAAGGAGCCGCAAAGAAGTTCTTAAGGCATGAATAATCCCTCAATATAAATATCTCTCACTTATTTAAA | 0.092 | 0.122 | – | – |
| CGACATGTCCCGCTTCTTTCATTATTCCGTTAGCAACGGTTTTGCTATATACATTTACCTTTTAAGAGGAGGAAT | – | – | 0.56 | – |
| ACAGACGAAGGAGCCGCAAAAAAGTTATAAAGGGATGAATAATCCCTCAATATAAATATCTCTCACTTATTTAAA | 0.4 | 0.581 | – | – |
| ACAGACGAAGGAGCCGCAAAGACGTTATTAAGGGATGATTAATCCCTCAATATAAATATCTCTCACTTATTTAAA | – | 0.779 | – | – |

| Sequence | cleaved RNA product abundance [1] | cleaved RNA product abundance [2] | cleaved RNA product abundance [3] | also measured |
| --- | --- | --- | --- | --- |
| CGACATGTCCCGCTTCTTTCATTAATCCGTTAGCATCTGTTTTGCTATATAGATTTACCTTTTAAGAGGAGGAAT | – | – | 0.899 | – |
| ACAGACGAAGGAGCCGCAAAGAAGTTATTAATGGATGAACAATCCCTCAATATAAATATCTCTCACTTATTTAAA | – | 0.143 | – | – |
| CGACATGTCCCGCTTCTTTCATTAATCCGTTAACAACTGTTTTGCTATATACATTTAACTTTTAAGAGGAGGAAT | – | – | 0.24 | – |
| ACAGACGAAGGAGCCGCAAAGATGTTATTAAGGGATGAATAATCCCTCGATATAAATATCTCTCACTTATTTAAA | 0.352 | – | – | – |
| ACAGACGAAGGAGCCGCAAAGAAGTTATTAAGCGATGTATAATCCCTCAATATAAATATCTCTCACTTATTTAAA | – | 0.08 | – | – |
| ACAGACGAAGGAGCCGCAAAGAAGTTATTAAGGGATAAAAAATCCCTCAATATAAATATCTCTCACTTATTTAAA | – | 0.625 | – | – |
| CGACATGTCCCGCTTCTTTCATTAATCCGATACCAACTGTTTTGCTATATACATTTACCTTTTAAGAGGAGGAAT | – | – | 0.304 | – |
| CGACATGTCCCGCTTCTTTCATTAATCCGTTATCAACTGTTTTCCTATATACATTTACCTTTTAAGAGGAGGAAT | – | – | 0.292 | – |
| ACAGACGAAGGAGCCGCAAAGAAGTTATTAAGGTATGCATAATCCCTCAATATAAATATCTCTCACTTATTTAAA | – | 0.126 | – | – |
| CGACATGTCCCGCTTCTTTCATTAATCCGTAAGCAACTGTTTTGCTATATACATTTACCTTTTAAGAGGAGGAAT | – | – | 0.434 | – |
| ACAGACGAAGGAGCCGCAAAGAAGTTATTAGGGGATGAATAATCACTCAATATAAATATCTCTCACTTATTTAAA | 0.114 | 0.112 | – | – |
| ACAGACGAAGGAGCCGCAAAGAAGTTATTAAGGGATGAATAATCACCCAATATAAATATCTCTCACTTATTTAAA | – | 0.129 | – | – |
| ACAGACGAAGGAGCCGCAAAGAAGTTATTAAGGGAGGAATAATCCCTCAATATAAATATCTCTCACTTATTTAAA | 0.499 | 0.603 | – | cleaved RNA product abundance [4]: 0.591 |
| ACAGACGAAGGAGCCGCAAAGAAGTTATTAAGGGATGAATCATACCTCAATATAAATATCTCTCACTTATTTAAA | 0.164 | 0.215 | – | – |
| ACAGACGAAGGAGCCGCAAAGAAGTTATTAAGGGATGAAAAATCCCTCAATATTAATATCTCTCACTTATTTAAA | 0.199 | 0.157 | – | – |
| ACAGACGAAGGAGCCGCAAAGAAGTTATTAAGGGATGAATAATCCCAGAATATAAATATCTCTCACTTATTTAAA | – | 0.361 | – | – |
| ACAGACGAAGGAGCCGCAAAGAAGTTATTAAGGTATGTATAATCCCTCAATATAAATATCTCTCACTTATTTAAA | 0.108 | 0.127 | – | – |
| CGACATGTCCCGCTTCTTTCATTAATCCGTTAGCAACTGTTATGTTATATACATTTACCTTTTAAGAGGAGGAAT | – | – | 0.172 | – |
| CGACATGTCCCGCTTCTTTCATTAATCCGATAGAAACTGTTTTGCTATATACATTTACCTTTTAAGAGGAGGAAT | – | – | 0.302 | – |
| ACAGACGAAGGAGCCGCAAAGAAGGTATTAAAGGATGAATAATCCCTCAATATAAATATCTCTCACTTATTTAAA | – | 0.189 | – | – |
